Experiment [1] concerns the target T1, human CLDN18 splice variant 2 (Claudin 18.2, hCLDN18.2) (human).
T1 construct: The same entry is used for CLDN18.2 in human stomach and gastric cancer FFPE tissue (IHC); also called HEK293-hCLDN18.2; HEK293-CLDN18.2
The experiment is described as follows: flow cytometry on HEK293-hCLDN18.2 cells, paraformaldehyde-fixed and non-fixed. For orientation: A flow cytometer gives signals particle by particle.

In experiment [2] the target is T2, mouse CLDN18.1 (mCLDN18.1) (mouse, UniProt P56857 1-264).
T2 construct: Stably expressed on HEK293 cells; the lung-type isoform is meant; also called HEK293-mCLDN18.1
Kind of experiment: flow cytometry on HEK293-mCLDN18.1 cells, paraformaldehyde-fixed and non-fixed.

The target of experiment [3] is T3, mouse CLDN18.2 (mCLDN18.2) (mouse, UniProt P56857 10-264).
T3 construct: Stably expressed on HEK293 cells; the stomach-type isoform is meant; also called mouse mhCLDN18.2; m hCLDN18.2
T3 chain: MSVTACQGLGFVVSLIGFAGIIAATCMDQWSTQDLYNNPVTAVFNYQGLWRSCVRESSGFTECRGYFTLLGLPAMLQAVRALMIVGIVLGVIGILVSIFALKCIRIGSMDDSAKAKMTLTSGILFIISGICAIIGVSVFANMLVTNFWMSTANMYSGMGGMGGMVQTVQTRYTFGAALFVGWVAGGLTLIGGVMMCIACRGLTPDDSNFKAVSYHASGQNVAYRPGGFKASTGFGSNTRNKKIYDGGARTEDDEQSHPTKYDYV
The experiment is described as follows: flow cytometry on HEK293-mCLDN18.2 cells, paraformaldehyde-fixed and non-fixed.

Experiment [4] addresses T1, human CLDN18 splice variant 2 (Claudin …). The experiment is described as follows: flow cytometry on HEK293-hCLDN18.2 cells, 3-fold dilutions from 10 µg/mL, 8 points.
Experiment [5] shares this target. Kind of experiment: IHC with hybridoma supernatant on FFPE sections of HEK293-hCLDN18.2 cell blocks.

B1: human-mouse chimeric positive control antibody 163E12 (antibody, human IgG1, kappa, V domains shown)
VH: QIQLVQSGPELKKPGETVKISCKASGYTFTNYGMNWVKQAPGKGLKWMGWINTNTGEPTYAEEFKGRFAFSLETSASTAYLQINNLKNEDTATYFCARLGFGNAMDYWGQGTSVTVSS
VL: DIVMTQSPSSLTVTAGEKVTMSCKSSQSLLNSGNQKNYLTWYQQKPGQPPKLLIYWASTRESGVPDRFTGSGSGTDFTLTISSVQAEDLAVYYCQNDYSYPLTFGAGTKLELKR
notes: Human-mouse chimeric antibody expressed in CHOS cells and purified on Protein A. It was detected with an anti-human Fc secondary antibody; also called home-made positive control (Benchmarker) chimeric antibody 163E12
As to B1, the binding result in experiment [1] is “binds”; in experiment [2], “no binding”; in experiment [3], “binds”.

B2: purified recombinant mouse monoclonal antibody 5-I10 (mouse IgG2a, kappa) (antibody, V domains shown)
VH: EIQLQQSGAELVKPGASVKISCKAPGYSFTDYNMNWVKQSHGKSLEWIGNINSYYGSTSYNQKFKGKATLTVDRSSSTAYMQLNSLTSEDSAVYYCTNFDRGNSFPYWGHGTLVTVSA
VL: DIVMTQSPSSLTVTVGEKVTMTCKSSQSLLNSGNQKNYLTWYQQKPGQSPKLLIYWASTRESGVPERFTGRGSGTDFTLTISSVQAEDLAVYYCQNGYSYPFTFGSGTNLEIKR
notes: also called recombinant and purified mouse IgG2a type 5-I10
Take B2: the binding result in experiment [4] was “binds”.

B3: purified recombinant mouse monoclonal antibody 5-G17 (mouse IgG2a, kappa) (antibody, V domains shown)
VH: EVKLVESGGGLVKPGGSLKLSCAASGFTISDYGMAWVRQAPGKGPEWVAFISNLAYSIHYVDTVTGRFTISRENAKNTLYLEMRSLRSEDTAMYYCARMYYGNALDYWGQGTSVTVSS
VL: DIVMTQSPSSLTVTTGEKVTMSCKSSQNLLNSGNQKNYLTWYQQKPGQPPKLLIYWASTRESGVPDRFTGSGSGTDFTLTISSVQAEDLAVYYCQNDYSFPLTFGAGTKLELKR
notes: Expressed in HEK293 cells and purified on Protein A; also called recombinant and purified mouse IgG2a type 5-G17
As for B3, the binding result in experiment [4] is recorded as “binds”.

B4: 5-I10 (mouse hybridoma clone, supernatant) (antibody, V domains shown)
VH: EIQLQQSGAELVKPGASVKISCKAPGYSFTDYNMNWVKQSHGKSLEWIGNINSYYGSTSYNQKFKGKATLTVDRSSSTAYMQLNSLTSEDSAVYYCTNFDRGNSFPYWGHGTLVTVSA
VL: DIVMTQSPSSLTVTVGEKVTMTCKSSQSLLNSGNQKNYLTWYQQKPGQSPKLLIYWASTRESGVPERFTGRGSGTDFTLTISSVQAEDLAVYYCQNGYSYPFTFGSGTNLEIK
notes: Antibody as secreted by the hybridoma; also called subclones 5-I10-33 and 5-I10-18
Take B4: in experiment [5], the binding result was “binds”.

B5: 5-G17 (mouse hybridoma clone, supernatant) (antibody, V domains shown)
VH: EVKLVESGGGLVKPGGSLKLSCAASGFTISDYGMAWVRQAPGKGPEWVAFISNLAYSIHYVDTVTGRFTISRENAKNTLYLEMRSLRSEDTAMYYCARMYYGNALDYWGQGTSVTVSS
VL: DIVMTQSPSSLTVTTGEKVTMSCKSSQNLLNSGNQKNYLTWYQQKPGQPPKLLIYWASTRESGVPDRFTGSGSGTDFTLTISSVQAEDLAVYYCQNDYSFPLTFGAGTKLELK
notes: Antibody as secreted by the hybridoma; also called subclones 5-G17-30 and 5-G17-6
As to B5, the binding result in experiment [5] is listed as “binds”.

(Values after US20230312704A1 (SHANGHAI ESCUGEN BIOTECHNOLOGY, published 2023).)
